Reference: patent publication US20050226876A1 (Hoffmann-La Roche, published 2005)

Assays:
[1] = target: T1, P-selectin on P-selectin-CHO transfectants (human, UniProt P16109 42-830); experiment: cell-based ELISA on P-selectin-CHO transfectants, OD405
T1 construct: whole, on cells; not restated for the transfectant; also called P-selectin-CHO cells; P-selectin CHO cells
T1 sequence (looked up): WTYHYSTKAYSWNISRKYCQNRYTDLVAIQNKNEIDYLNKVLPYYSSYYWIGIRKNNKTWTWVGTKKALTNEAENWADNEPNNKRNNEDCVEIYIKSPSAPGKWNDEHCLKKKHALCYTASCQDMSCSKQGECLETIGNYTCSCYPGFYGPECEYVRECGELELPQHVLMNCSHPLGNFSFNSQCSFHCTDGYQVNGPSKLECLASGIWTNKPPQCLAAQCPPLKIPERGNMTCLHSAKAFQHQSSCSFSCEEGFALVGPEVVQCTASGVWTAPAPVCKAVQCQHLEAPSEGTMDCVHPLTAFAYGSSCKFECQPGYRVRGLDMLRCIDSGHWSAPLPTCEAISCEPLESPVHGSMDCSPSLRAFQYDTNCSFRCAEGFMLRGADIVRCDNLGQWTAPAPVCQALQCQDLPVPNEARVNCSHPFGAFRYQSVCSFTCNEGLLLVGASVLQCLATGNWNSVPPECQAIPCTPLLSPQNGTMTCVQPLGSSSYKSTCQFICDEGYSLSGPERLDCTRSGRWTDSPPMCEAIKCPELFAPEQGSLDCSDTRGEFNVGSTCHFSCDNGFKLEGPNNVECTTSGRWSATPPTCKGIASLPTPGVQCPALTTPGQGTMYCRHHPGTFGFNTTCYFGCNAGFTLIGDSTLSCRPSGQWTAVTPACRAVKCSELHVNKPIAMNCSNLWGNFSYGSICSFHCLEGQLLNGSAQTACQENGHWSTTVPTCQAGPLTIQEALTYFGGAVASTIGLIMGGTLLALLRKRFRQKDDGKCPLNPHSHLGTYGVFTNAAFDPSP
Description: In the cell-based ELISA P— and E-selectin-CHO-transfectants, after detaching the cells with cell-dissociation solution (Sigma C5914), were seeded into each well of 96 well plates (TC Microwell F96 Nunc 167008) adjusted to 100,000 cells/well and cultivated in respective media overnight at 37° C. (medium for P— CHO-transfectants: DMEM+10% FCS+2 mM Glutamine+Penicillin 100 U/ml/Streptomycin 100 μg/ml; medium for E-selctin transfecttants: HAM F-12+10% FCS+2 mM Glutamine+Penicillin 100 U/ml/Streptomycin 100 μg/ml+0.1% Fungizone+100 μg/ml Neomycin). […] After washing the wells (4 times), the bound antibodies were detected using the same steps as mentioned above for the cell-free ELISA.

[2] = target: T2, human complement factor C1q (human, UniProt P02745 23-245; P02746 28-253; P02747 29-245); experiment: C1q ELISA, antibody coated; background OD405 0.079
T2 construct: also called Clq
Description: (§1) In principle, the ELISA plate is coated with concentration ranges of the antibody, to which human C1q or human pooled serum, as a source of C3, is added. C1q or […] binding is detected by an antibody directed against human C1q or […] followed by a peroxidase-labeled conjugate.

[3] = target: T3, rat P-selectin (on thrombin-activated rat platelets) (rat, UniProt P98106 42-768); experiment: rosetting assay: adhesion of thrombin-activated rat platelets to HL60 cells, FACS; absence of inhibition, shown as lack of cross-reactivity with rat P-selectin
T3 construct: whole, on cells
T3 sequence (looked up): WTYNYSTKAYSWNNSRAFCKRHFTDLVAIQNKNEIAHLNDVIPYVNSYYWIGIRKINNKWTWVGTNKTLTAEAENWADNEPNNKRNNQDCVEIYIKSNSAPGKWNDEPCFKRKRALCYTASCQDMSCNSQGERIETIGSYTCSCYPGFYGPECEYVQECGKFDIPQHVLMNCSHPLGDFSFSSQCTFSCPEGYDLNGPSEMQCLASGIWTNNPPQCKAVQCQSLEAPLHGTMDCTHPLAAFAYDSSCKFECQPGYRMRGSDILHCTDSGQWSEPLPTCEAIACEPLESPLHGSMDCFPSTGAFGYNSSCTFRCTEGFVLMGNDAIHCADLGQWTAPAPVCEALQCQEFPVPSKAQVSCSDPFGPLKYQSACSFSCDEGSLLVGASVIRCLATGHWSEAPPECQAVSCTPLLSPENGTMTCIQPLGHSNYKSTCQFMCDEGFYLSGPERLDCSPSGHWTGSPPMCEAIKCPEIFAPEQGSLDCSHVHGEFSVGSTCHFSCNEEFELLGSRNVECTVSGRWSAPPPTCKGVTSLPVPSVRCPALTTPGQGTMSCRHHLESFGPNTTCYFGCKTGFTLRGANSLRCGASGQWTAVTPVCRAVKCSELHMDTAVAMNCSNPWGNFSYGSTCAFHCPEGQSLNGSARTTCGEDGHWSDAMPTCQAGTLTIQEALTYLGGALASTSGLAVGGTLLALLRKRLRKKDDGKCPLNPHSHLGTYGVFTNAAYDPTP

[4] = target: T4, human complement factor C3 (from human pooled serum) (human, UniProt P01024 23-1663, limits assumed); experiment: C3 ELISA, antibody coated, human pooled serum
T4 construct: The ELISA detects C3 (C3c) deposited on the coated antibody out of serum; also called C3c
Description: as §1

[5] = target: T5, Fcγ receptor on human NK cells (FcγRIII) (human, UniProt P08637 17-254); experiment: FACS on NK cells from human blood, antibody 10 µg/ml; no antibody: 0.03
T5 construct: whole, on cells; also called FcγR presented on NK cells
T5 sequence (P08637 17-254): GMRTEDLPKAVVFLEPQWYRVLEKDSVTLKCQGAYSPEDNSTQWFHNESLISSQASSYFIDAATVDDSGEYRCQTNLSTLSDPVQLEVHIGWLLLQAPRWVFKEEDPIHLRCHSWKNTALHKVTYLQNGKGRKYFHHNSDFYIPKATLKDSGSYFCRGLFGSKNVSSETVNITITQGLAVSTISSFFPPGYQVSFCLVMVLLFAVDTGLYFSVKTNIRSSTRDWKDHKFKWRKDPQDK

T2 sequence (P02745 23-245 limits assumed, chain 1 of 3): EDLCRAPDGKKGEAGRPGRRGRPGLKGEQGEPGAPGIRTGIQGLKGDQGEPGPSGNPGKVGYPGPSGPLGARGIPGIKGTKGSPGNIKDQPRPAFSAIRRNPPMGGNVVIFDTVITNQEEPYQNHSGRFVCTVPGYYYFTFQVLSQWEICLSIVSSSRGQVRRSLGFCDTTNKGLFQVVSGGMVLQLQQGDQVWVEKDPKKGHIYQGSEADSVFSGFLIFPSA
T2 sequence (P02746 28-253 limits assumed, chain 2 of 3): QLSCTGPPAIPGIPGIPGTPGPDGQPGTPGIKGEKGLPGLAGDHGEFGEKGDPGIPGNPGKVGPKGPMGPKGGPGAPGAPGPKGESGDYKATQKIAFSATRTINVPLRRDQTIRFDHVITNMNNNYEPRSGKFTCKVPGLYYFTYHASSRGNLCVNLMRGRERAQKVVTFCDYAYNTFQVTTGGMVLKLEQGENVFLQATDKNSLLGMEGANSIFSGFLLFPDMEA
T2 sequence (P02747 29-245 limits assumed, chain 3 of 3): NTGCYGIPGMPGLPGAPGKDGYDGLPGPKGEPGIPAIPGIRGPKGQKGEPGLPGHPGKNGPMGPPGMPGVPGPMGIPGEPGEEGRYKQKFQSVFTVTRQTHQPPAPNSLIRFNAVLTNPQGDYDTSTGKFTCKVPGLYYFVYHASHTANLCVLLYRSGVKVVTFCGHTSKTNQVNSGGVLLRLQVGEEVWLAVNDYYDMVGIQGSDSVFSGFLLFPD
T4 sequence (P01024 23-1663 limits assumed): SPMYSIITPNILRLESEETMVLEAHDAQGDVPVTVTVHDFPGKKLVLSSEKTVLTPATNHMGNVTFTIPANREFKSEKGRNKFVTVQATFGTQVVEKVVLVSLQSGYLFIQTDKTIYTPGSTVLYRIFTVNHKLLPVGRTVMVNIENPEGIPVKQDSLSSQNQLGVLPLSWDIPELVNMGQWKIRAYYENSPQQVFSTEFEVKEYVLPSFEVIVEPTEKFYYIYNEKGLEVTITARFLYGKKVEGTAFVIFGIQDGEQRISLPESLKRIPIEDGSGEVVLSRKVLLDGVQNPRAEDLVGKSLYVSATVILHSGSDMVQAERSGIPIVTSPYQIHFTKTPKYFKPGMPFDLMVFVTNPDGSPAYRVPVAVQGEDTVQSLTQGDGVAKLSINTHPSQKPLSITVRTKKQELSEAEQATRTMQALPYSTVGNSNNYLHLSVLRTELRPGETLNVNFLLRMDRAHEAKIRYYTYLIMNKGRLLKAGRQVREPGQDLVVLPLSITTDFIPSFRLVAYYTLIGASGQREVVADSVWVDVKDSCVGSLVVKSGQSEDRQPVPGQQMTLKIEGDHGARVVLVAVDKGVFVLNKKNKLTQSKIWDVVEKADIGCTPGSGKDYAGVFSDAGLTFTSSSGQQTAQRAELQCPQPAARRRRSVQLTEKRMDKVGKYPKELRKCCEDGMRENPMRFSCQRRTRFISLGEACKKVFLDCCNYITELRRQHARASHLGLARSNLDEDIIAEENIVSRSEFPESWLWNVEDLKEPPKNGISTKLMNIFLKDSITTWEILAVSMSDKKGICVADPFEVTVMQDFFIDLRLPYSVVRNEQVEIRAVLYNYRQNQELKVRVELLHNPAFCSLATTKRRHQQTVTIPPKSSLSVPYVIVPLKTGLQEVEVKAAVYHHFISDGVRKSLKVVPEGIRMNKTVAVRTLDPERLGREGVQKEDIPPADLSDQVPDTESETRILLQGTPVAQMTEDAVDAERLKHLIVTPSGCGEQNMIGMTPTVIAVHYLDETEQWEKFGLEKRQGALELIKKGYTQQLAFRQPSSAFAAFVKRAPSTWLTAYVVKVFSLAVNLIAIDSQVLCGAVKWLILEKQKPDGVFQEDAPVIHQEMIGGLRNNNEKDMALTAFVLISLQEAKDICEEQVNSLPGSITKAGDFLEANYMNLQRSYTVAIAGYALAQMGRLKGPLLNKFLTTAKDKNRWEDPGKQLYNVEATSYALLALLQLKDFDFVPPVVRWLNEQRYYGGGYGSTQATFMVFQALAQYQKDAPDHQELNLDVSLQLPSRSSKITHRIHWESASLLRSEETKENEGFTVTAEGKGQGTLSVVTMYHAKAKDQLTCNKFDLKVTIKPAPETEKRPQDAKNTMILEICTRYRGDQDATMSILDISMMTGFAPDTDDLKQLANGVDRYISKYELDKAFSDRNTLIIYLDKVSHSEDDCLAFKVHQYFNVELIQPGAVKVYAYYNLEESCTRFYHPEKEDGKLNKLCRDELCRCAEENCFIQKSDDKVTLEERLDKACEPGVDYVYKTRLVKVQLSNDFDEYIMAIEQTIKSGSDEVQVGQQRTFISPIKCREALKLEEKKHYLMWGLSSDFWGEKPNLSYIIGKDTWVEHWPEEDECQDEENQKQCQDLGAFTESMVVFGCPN

B1: HuMab 002 Fc variant IgG1v1 (PVA-236; GLPSS331: E233P; L234V; L235A; delta G236; A327G; A330S; P331S) (antibody)
heavy: EVQLVESGGGLVRPGGSLRLSCAASGFTFSNYDMHWVRQATGKGLEWVSAITAAGDIYYPGSVKGRFTISRENAKNSLYLQMNSLRAGDTAVYYCARGRYSGSGSYYNDWFDPWGQGTLVTVSSASTKGPSVFPLAPSSKSTSGGTAALGCLVKDYFPEPVTVSWNSGALTSGVHTFPAVLQSSGLYSLSSVVTVPSSSLGTQTYICNVNHKPSNTKVDKKVEPKSCDKTHTCPPCPAPPVAGPSVFLFPPKPKDTLMISRTPEVTCVVVDVSHEDPEVKFNWYVDGVEVHNAKTKPREEQYNSTYRVVSVLTVLHQDWLNGKEYKCKVSNKGLPSSIEKTISKAKGQPREPQVYTLPPSRDELTKNQVSLTCLVKGFYPSDIAVEWESNGQPENNYKTTPPVLDSDGSFFLYSKLTVDKSRWQQGNVFSCSVMHEALHNHYTQKSLSLSPGK
light: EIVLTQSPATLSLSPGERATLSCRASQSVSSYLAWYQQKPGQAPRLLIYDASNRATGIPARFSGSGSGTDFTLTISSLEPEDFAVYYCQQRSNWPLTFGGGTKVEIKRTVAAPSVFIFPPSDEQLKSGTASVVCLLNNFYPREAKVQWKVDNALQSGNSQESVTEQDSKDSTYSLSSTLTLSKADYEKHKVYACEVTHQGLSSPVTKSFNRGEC
notes: copies: 2 + 2
EC50 (read off the curve) [1]: ~0.03 µg/mL
Bmax (OD405 at 10 µg/ml) [2]: 0.0119 OD405
binding result [3]: no binding (tested: 100 µg/ml)
binding result [4]: no binding
% NK cells binding antibody [5]: 0.12%
